Here are results for 4 proteins from publication PMC7078158, “Enzymes Catalyzing Crotonyl-CoA Conversion to Acetoacetyl-CoA During the Autotrophic CO2 Fixation in Metallosphaera sedula” (Frontiers in Microbiology, 2020).

Format in all cases: biochemical, Metallosphaera sedula
Substrate in data set [1]: C[C@H](O)CC(=O)SCCNC(=O)CCNC(=O)[C@H](O)C(C)(C)COP(=O)(O)OP(=O)(O)OC[C@H]1O[C@@H](n2cnc3c(N)ncnc32)[C@H](O)[C@@H]1OP(=O)(O)O
Briefly: (S)-3-hydroxybutyryl-CoA dehydrogenase assay. The note with it: 0.5 mM NAD, 65 °C, apparent Km. The text has this:
(§1) (S)-3-hydroxybutyryl-CoA dehydrogenase assay on (S)-3-hydroxybutyryl-CoA dehydrogenase Msed_1423

Substrate in data set [2]: NC(=O)c1ccc[n+]([C@@H]2O[C@H](COP(=O)(O)OP(=O)(O)OC[C@H]3O[C@@H](n4cnc5c(N)ncnc54)[C@H](OP(=O)(O)O)[C@@H]3O)[C@@H](O)[C@H]2O)c1
Briefly: (S)-3-hydroxybutyryl-CoA dehydrogenase assay. The note with it: with (S)-3-hydroxybutyryl-CoA, 65 °C, apparent Km, varied: cofactor.
Excerpt: as §1

Substrate in data set [3]: NC(=O)c1ccc[n+]([C@@H]2O[C@H](COP(=O)(O)OP(=O)(O)OC[C@H]3O[C@@H](n4cnc5c(N)ncnc54)[C@H](O)[C@@H]3O)[C@@H](O)[C@H]2O)c1
Briefly: (S)-3-hydroxybutyryl-CoA dehydrogenase assay. To be noted: with (S)-3-hydroxybutyryl-CoA, 65 °C, apparent Km, varied: cofactor.
Excerpt: as §1

Substrate in data set [4]: C[C@H](O)CC(=O)SCCNC(=O)CCNC(=O)[C@H](O)C(C)(C)COP(=O)(O)OP(=O)(O)OC[C@H]1O[C@@H](n2cnc3c(N)ncnc32)[C@H](O)[C@@H]1OP(=O)(O)O
Briefly: (S)-3-hydroxybutyryl-CoA dehydrogenase assay. The note with it: 0.5 mM NAD, 65 °C, apparent Km. The text has this:
(§2) (S)-3-hydroxybutyryl-CoA dehydrogenase assay on (S)-3-hydroxybutyryl-CoA dehydrogenase Msed_0389
The source holds these as a separate data set.

Substrate in data set [5]: NC(=O)c1ccc[n+]([C@@H]2O[C@H](COP(=O)(O)OP(=O)(O)OC[C@H]3O[C@@H](n4cnc5c(N)ncnc54)[C@H](OP(=O)(O)O)[C@@H]3O)[C@@H](O)[C@H]2O)c1
Briefly: (S)-3-hydroxybutyryl-CoA dehydrogenase assay. To be noted: with (S)-3-hydroxybutyryl-CoA, 65 °C, apparent Km, varied: cofactor.
Excerpt: as §2
The source holds these as a separate data set.

Substrate in data set [6]: NC(=O)c1ccc[n+]([C@@H]2O[C@H](COP(=O)(O)OP(=O)(O)OC[C@H]3O[C@@H](n4cnc5c(N)ncnc54)[C@H](O)[C@@H]3O)[C@@H](O)[C@H]2O)c1
Briefly: (S)-3-hydroxybutyryl-CoA dehydrogenase assay. The note with it: with (S)-3-hydroxybutyryl-CoA, 65 °C, apparent Km, varied: cofactor.
Excerpt: as §2
This is another data set of the same source.

Substrate in data set [7]: C[C@H](O)CC(=O)SCCNC(=O)CCNC(=O)[C@H](O)C(C)(C)COP(=O)(O)OP(=O)(O)OC[C@H]1O[C@@H](n2cnc3c(N)ncnc32)[C@H](O)[C@@H]1OP(=O)(O)O
Briefly: (S)-3-hydroxybutyryl-CoA dehydrogenase assay with NAD. To be noted: dehydrogenase reaction with NAD, 65 °C, apparent Km. An excerpt:
(S)-3-hydroxybutyryl-CoA dehydrogenase assay with NAD on crotonyl-CoA hydratase/(S)-3-hydroxybutyryl-CoA dehydrogenase Msed_0399

Substrate in data set [8]: CC(C)(COP(=O)(O)OP(=O)(O)OC[C@H]1O[C@@H](n2cnc3c(N)ncnc32)[C@H](O)[C@@H]1OP(=O)(O)O)[C@@H](O)C(=O)NCCC(=O)NCCSC(=O)CCO
Briefly: Ccr-coupled assay, acryloyl-CoA formation, UHPLC. To be noted: dehydratase reaction, 100 mM MOPS/KOH pH 7.0, 42 °C, 1 mM NADPH and NaHCO3 for coupling enzyme, apparent Km. An excerpt:
Ccr-coupled assay, acryloyl-CoA formation, UHPLC on crotonyl-CoA hydratase/(S)-3-hydroxybutyryl-CoA dehydrogenase Msed_0399

Substrate in data set [9]: CCCCC/C=C/C(=O)SCCNC(=O)CCNC(=O)[C@H](O)C(C)(C)COP(=O)(O)OP(=O)(O)OC[C@H]1O[C@@H](n2cnc3c(N)ncnc32)[C@H](O)[C@@H]1OP(=O)(O)O
Briefly: UHPLC, 3-hydroxyoctanoyl-CoA formation. The note with it: hydratase reaction, 65 °C, apparent Km, buffer in general 100 mM Tris-HCl pH 7.8. The text has this:
UHPLC, 3-hydroxyoctanoyl-CoA formation on crotonyl-CoA hydratase/(S)-3-hydroxybutyryl-CoA dehydrogenase Msed_0399

Substrate in data set [10]: C/C=C/C(=O)SCCNC(=O)CCNC(=O)[C@H](O)C(C)(C)COP(=O)(O)OP(=O)(O)OC[C@H]1O[C@@H](n2cnc3c(N)ncnc32)[C@H](O)[C@@H]1OP(=O)(O)O
Briefly: UHPLC, 3-hydroxybutyryl-CoA formation. The note with it: hydratase reaction, 100 mM Tris-HCl pH 9, 65 °C, apparent Km. An excerpt:
UHPLC, 3-hydroxybutyryl-CoA formation on crotonyl-CoA hydratase/(S)-3-hydroxybutyryl-CoA dehydrogenase Msed_0399

Substrate in data set [11]: C=C(C)C(=O)SCCNC(=O)CCNC(=O)[C@H](O)C(C)(C)COP(=O)(O)OP(=O)(O)OC[C@H]1O[C@@H](n2cnc3c(N)ncnc32)[C@H](O)[C@@H]1OP(=O)(O)O
Briefly: UHPLC, 3-hydroxy-2-methylpropionyl-CoA formation. To be noted: hydratase reaction, 100 mM Tris-HCl pH 7.8, 65 °C, apparent Km. The text has this: UHPLC, 3-hydroxy-2-methylpropionyl-CoA formation on crotonyl-CoA hydratase Msed_0336

Substrate in data set [12]: CCCCC/C=C/C(=O)SCCNC(=O)CCNC(=O)[C@H](O)C(C)(C)COP(=O)(O)OP(=O)(O)OC[C@H]1O[C@@H](n2cnc3c(N)ncnc32)[C@H](O)[C@@H]1OP(=O)(O)O
Briefly: UHPLC, 3-hydroxyoctanoyl-CoA formation. The note with it: hydratase reaction, 100 mM Tris-HCl pH 7.8, 65 °C, apparent Km. An excerpt: UHPLC, 3-hydroxyoctanoyl-CoA formation on crotonyl-CoA hydratase Msed_0336

Substrate in data set [13]: C[C@H](O)CC(=O)SCCNC(=O)CCNC(=O)[C@H](O)C(C)(C)COP(=O)(O)OP(=O)(O)OC[C@H]1O[C@@H](n2cnc3c(N)ncnc32)[C@H](O)[C@@H]1OP(=O)(O)O
Briefly: Ccr-coupled dehydratase assay, UHPLC. To be noted: dehydratase reaction, 100 mM Tris-HCl pH 7.8, 42 °C, 1 mM NADPH and NaHCO3 for coupling enzyme, apparent Km. An excerpt: Ccr-coupled dehydratase assay, UHPLC on crotonyl-CoA hydratase Msed_0336

Substrate in data set [14]: C/C=C/C(=O)SCCNC(=O)CCNC(=O)[C@H](O)C(C)(C)COP(=O)(O)OP(=O)(O)OC[C@H]1O[C@@H](n2cnc3c(N)ncnc32)[C@H](O)[C@@H]1OP(=O)(O)O
Briefly: UHPLC, 3-hydroxybutyryl-CoA formation. The note with it: hydratase reaction, 100 mM Tris-HCl pH 7.8, 65 °C, apparent Km. The text has this: UHPLC, 3-hydroxybutyryl-CoA formation on crotonyl-CoA hydratase Msed_0336

Substrate in data set [15]: C=CC(=O)SCCNC(=O)CCNC(=O)[C@H](O)C(C)(C)COP(=O)(O)OP(=O)(O)OC[C@H]1O[C@@H](n2cnc3c(N)ncnc32)[C@H](O)[C@@H]1OP(=O)(O)O
Briefly: UHPLC, 3-hydroxypropionyl-CoA formation. The note with it: hydratase reaction, 100 mM Tris-HCl pH 7.8, 65 °C, apparent Km. An excerpt: UHPLC, 3-hydroxypropionyl-CoA formation on crotonyl-CoA hydratase Msed_0336

B1: (S)-3-hydroxybutyryl-CoA dehydrogenase Msed_1423 (Metallosphaera sedula DSM 5348) (protein)
chain: MRIAVVGSGTMGHGIAEVAAMAGMEVKLIDISWDILNRAKERMYDSLKRLHERGTIRETPDTVMSRIEISVSYDVAKDVDFAIEAVPEILELKRKVFQELDRVVPKESILATNTSSIPISDIGEITSRKEKVIGMHFFNPPPLMKLVEVIPSKYTSEDVTRYTVELAKKMGKTPVRLRVEVPGFVSNRIFLRLLQEACREVESGEATIEEVDSSARNKLKLPMGIFELADYVGLDVAVDLWKVIVERGASDVKCSSYKERVDRKELGVKTGKGFYTYPAPGKYSKVSLPPESKVPPERIISLAVNEGAWLIENNIVNAEEIDTVMRLGFNFPKGLLEMADELGLDKILNALREIHSRGYEAYSPNPLLVKMVSQGQTGKSSGRGFYTYGKT
notes: full-length, N-terminal His10-tag (pET16b), recombinant in E. coli Rosetta 2 (DE3)
Turning to B1, the Km is 5 ± 2 µM in data set [1], 5.1 ± 0.5 mM in [2] and 0.03 ± 0.003 mM in [3].

B2: (S)-3-hydroxybutyryl-CoA dehydrogenase Msed_0389 (Metallosphaera sedula DSM 5348) (protein)
chain: MKVFVIGSGVMGSGIGQVFAMAGHEVTLYDVKEEALKKAMEGIRWSLQKLQEKGSVKDVESVLSRIFTSRDLSEARDHLVIEAVFEDIKVKSDVLGRVSPLTDEIIASNTSSLPITELSRAVRNPERFLGMHFFNPPVLMKLVEVIRGDNTSEERFREALDIVKSLGKYPLPVRKDVFGFVVNRILFRLFTSACALLTQYTPHEIDYVAIKELGMPMGLIMLLDYTGLDVNYDISKEAERRGFPFKCDVLEGMVKSGKLGRKSGQGFYDWSKGKPEVKATSGPDPRELLRGAVEEAKWLISQGVVTREELETGLKLGLGMSRGILELGEILGVH
notes: as for B1
In the case of B2, the Km is 2.6 ± 1 µM in data set [4], 1.5 ± 0.3 mM in [5] and 0.012 ± 0.002 mM in data set [6].

B3: crotonyl-CoA hydratase/(S)-3-hydroxybutyryl-CoA dehydrogenase Msed_0399 (Metallosphaera sedula DSM 5348) (protein)
chain: MKVTVIGSGVMGHGIAELAAIAGNEVWMNDISTEILQQAMERIKWSLSKLRESGSLKEGVEQVLARIHPETDQAQALKGSDFVIEAVKEDLELKRTIFRNAEAHASPSAVLATNTSSLPISEIASVLKSPQRVVGMHFFNPPVLMPLVEIVRGKDTSDEVVKTTAEMAKSMNKETIVVKDVPGFFVNRVLLRIMEAGCYLVEKGIASIQEVDSSAIEELGFPMGVFLLADYTGLDIGYSVWKAVTARGFKAFPCSSTEKLVSQGKLGVKSGSGYYQYPSPGKFVRPTLPSTSKKLGRYLISPAVNEVSYLLREGIVGKDDAEKGCVLGLGLPKGILSYADEIGIDVVVNTLEEMRQTSGMDHYSPDPLLLSMVKEGKLGRKSGQGFHTYAHEEAKYSTIVVRVEPPLAWIVLNRPTRYNAINGDMIREINQALDSLEEREDVRVIAITGQGRVFSAGADVTEFGSLTPVKAMIASRKFHEVFMKIQFLTKPVIAVINGLALGGGMELALSADFRVASKTAEMGQPEINLGLIPGGGGTQRLSRLSGRKGLELVLTGRRVKAEEAYRLGIVEFLAEPEELESEVRKLANAIAEKSPLAVASAKLAYKLGEETHIWTGTSLEASLFGLLFSTKDFEEGVRAFLEKRKPNFRGE
notes: full-length, untagged, recombinant in E. coli Rosetta 2 (DE3); N-terminal dehydrogenase domain (~40 kDa), C-terminal enoyl-CoA hydratase domain (~20 kDa)
As to B3, the Km turned out to be 0.12 ± 0.01 mM in data set [7], 0.06 ± 0.02 mM in [8], 0.08 ± 0.01 mM in data set [9] and 0.97 ± 0.07 mM in data set [10].

B4: crotonyl-CoA hydratase Msed_0336 (Metallosphaera sedula DSM 5348) (protein)
chain: MKVLYEERDGISWITFNRPEKLNALDAESWKLLGDHVRRGDSSDSRAIVITGNGRAFSSGDDIGSMTSLNDQREAEDFFNALLYAVDGLIYTNKPVIGAVNGLAYGGGCEILLFMDVVISTRSARFSIPEGRLGLIPPMALSVGYNSIGRSVAWLAITGEEIDAMRAKEIGLVDIVGDDLNLELEKVMARISSMDQGSIKVIKAWLRKSREPIREAIRELSFMSLSTQAKERMKRFLSR
notes: as for B1
As for B4, the Km in data set [11] is 0.29 ± 0.05 mM; in data set [12], 0.09 ± 0.01 mM; in data set [13], 0.07 ± 0.02 mM; in data set [14] it was 0.08 ± 0.01 mM; in data set [15], 0.07 ± 0.005 mM.

The term Km denotes the substrate concentration at which the rate is half of its maximum.
